Source: US20260166131A1, “METHOD FOR PROMOTING PATHOLOGICAL TDP-43 PROTEIN DEGRADATION, AND DRUG” (TALENGEN INTERNATIONAL LIMITED, priority 2022, published 2026)
“Also recorded” adds a separate entry of the source.

Experiments:
TDP-43 [1] = target: TDP-43 (Mus musculus, UniProt Q921F2); test: TDP-43 in cytoplasm and nucleus of NSC34 cells treated with okadaic acid (Western blot); assay type: cell-based; parameters: host or cells: NSC34 cells; conditions: okadaic acid 2.5 ng/uL 24 h, plasminogen 0.5 mg/mL 24 hours, vs vehicle group
Chain of TDP-43 (Mus musculus, UniProt Q921F2) (Q921F2 whole entry): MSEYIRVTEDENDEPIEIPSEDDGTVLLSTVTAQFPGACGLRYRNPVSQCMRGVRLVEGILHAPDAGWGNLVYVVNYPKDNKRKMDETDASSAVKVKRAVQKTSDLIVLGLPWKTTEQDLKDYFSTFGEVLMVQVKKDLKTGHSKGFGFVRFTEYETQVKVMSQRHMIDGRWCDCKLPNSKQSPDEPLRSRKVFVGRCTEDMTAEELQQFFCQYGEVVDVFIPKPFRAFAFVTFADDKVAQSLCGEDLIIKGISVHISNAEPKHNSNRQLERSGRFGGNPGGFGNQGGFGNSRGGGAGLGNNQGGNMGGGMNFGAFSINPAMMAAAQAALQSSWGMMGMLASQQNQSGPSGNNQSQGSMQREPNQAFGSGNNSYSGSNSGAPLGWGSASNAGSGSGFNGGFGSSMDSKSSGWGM
Description: 10^6 NSC34 cells (Otwo Biotech, HTX1846) were inoculated in a 9 cm^2 culture dish, and cultured in DMEM medium (Gibco, 11965092) containing 10% fetal bovine serum (EVERY GREEN, 11011-8611). The cells were placed in a carbon dioxide incubator for culture at 37.0° C. and 5% CO2. After the cells grew for 48 hours and reached about 80%-90% abundance, the medium was changed, and subsequent experiments were performed. […] After adding plasminogen for 24 hours, the cells were harvested. The culture supernatant was sucked off, washing with 1×PBS, digesting with 1 mL of 0.25% pancreatic enzyme for 2-3 minutes, then stopping digestion with 5-6 mL of DMEM complete medium when the cells were obviously detached. The cells were slowly blown, and the suspension was collected into a centrifuge tube, centrifuging at 1500 rpm for 5 min to remove the supernatant, resuspending with pre-cooled 1×PBS, and counting the cells. 200 μL of plasma protein extraction reagent (the volume of a pellet of 2×10^6 cells is about 20 μL or 40 mg) (Solarbio, R0050) was added for every 20 μL of cell pellet. The cell pellet was completely dispersed into a single-cell suspension by pipette blow or high-speed vortex for 15 seconds, then ice-bathing for 10 minutes, vortexing vigorously at maximum speed for 10 seconds and centrifuging at 12,000-16,000 g for 10 minutes at 4° C. […]

TDP-43 [2] = target: T1, TDP-43 (Homo sapiens, UniProt Q13148); test: Cleavage of TDP-43 protein in normal mouse brain homogenate (Western blot); assay type: biochemical; conditions: normal mouse brain homogenate + recombinant TDP-43, 37° C. 3 h, vs vehicle control group
T1 construct: purchased Nanjing GenScript Biotechnology Co., Ltd. C134WHE160-2/P5HF001
T1 sequence (Q13148 whole entry): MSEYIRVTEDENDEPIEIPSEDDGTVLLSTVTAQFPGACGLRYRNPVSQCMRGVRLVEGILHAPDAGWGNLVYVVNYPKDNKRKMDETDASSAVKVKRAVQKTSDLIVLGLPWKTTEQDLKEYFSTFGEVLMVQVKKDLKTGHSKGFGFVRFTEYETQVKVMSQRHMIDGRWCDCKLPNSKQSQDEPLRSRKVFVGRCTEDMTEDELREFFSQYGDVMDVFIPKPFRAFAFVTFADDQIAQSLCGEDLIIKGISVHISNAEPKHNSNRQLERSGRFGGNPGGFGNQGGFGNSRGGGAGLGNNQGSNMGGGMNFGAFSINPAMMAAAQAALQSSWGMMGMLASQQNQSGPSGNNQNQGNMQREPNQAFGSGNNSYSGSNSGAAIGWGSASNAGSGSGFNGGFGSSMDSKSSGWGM
Description: Four C57BL/6J male mice aged 11-12 weeks and weighing 18-25 g were sacrificed, and the whole brain was taken out to weigh. 1×PBS was added at 150 mg tissue/mL PBS (Thermo Fisher, pH 7.4; 10010-031) to homogenize at 4° C. (1 min, 3-4 times). After homogenization, centrifugation was performed at 4° C. (12000 rpm, 20 min), and the supernatant, i.e., the brain homogenate, was placed in a new EP tube.
Eppendorf (EP) tubes were set as: (1) blank group, (2) blank control group, (3) vehicle control group, and (4) plasminogen group, with 5 parallels in each group. The blank group was added with 21.5 μL of normal saline, 4.6 μL of vehicle solution (10 mM sodium citrate, 2% arginine hydrochloride, 3% mannitol, pH 7.4), and 23.9 μL of mouse brain homogenate; the blank control group was added with 21.5 μL of normal saline, 2.3 μL of plasminogen solution (2 mg/mL), and 23.9 μL of mouse brain homogenate; the vehicle control group was added with 20.5 μL of TDP-43 (Nanjing GenScript Biotechnology Co., Ltd., custom-expressed human TDP-43, C134WHE160-2/P5HF001, 1.05 mg/mL), 4.6 μL of vehicle solution, and 23.9 μL of mouse brain homogenate; the plasminogen group was added with 20.5 μL of TDP-43 (1.05 mg/mL), 2.3 μL of plasminogen solution (2 mg/mL), and 23.9 μL of mouse brain homogenate. After adding each group of samples, they are incubated at 37° C. for 3 h, then adding 50 μL of 0.1% trifluoroacetic acid solution to terminate the reaction.
A 12% gel was prepared according to the SDS-PAGE gel preparation instructions. Each group of samples was mixed with 4× loading buffer (TaKaRa, e2139) at a volume ratio of 3:1, heating at 100° C. for 5 min, cooling and centrifuging for 2 min, and then 20 μL was taken for sample loading. […] After washing 4 times with TBST, the PVDF membrane was placed on a clean imaging plate, Immobilon Western HRP Substrate (MILLIPORE, WBKLS0100) was added for color development, and photos were taken under a biomolecular imager, then performing quantitative analysis by using Image J.

[3] = Blood plasminogen level in MPTP Parkinson's model mice (ELISA); assay type: in vivo, mouse; conditions: 50 mg/kg tail vein
Description: Eighteen 6-week-age male C57BL/6J mice were injected intraperitoneally with 1-methyl-4-phenyl-1,2,3,6-tetrahydropyridine (MPTP) solution at a dose of 35 mg/kg/mouse for 5 consecutive days to establish a Parkinson's model [7]. […] The mice were randomly divided into two groups according to their body weight: 6 mice in vehicle group, 12 mice in plasminogen group; and administration was begun to record as day 1. The mice in the plasminogen group were injected with 50 mg/kg body weight of plasminogen solution by tail vein, and the mice in the vehicle group were injected with 5 mL/kg body weight of vehicle solution (10 mM citric acid-sodium citrate solution, pH 7.4) by tail vein. Three mice in the vehicle group were killed respectively 2 and 24 hours after administration, and their blood was collected. Three mice in the plasminogen group were killed 2, 6, 12, and 24 hours after administration, and their blood was collected. After the blood was centrifuged (3500 rpm, 10 min, 4° C.), the supernatant was taken to detect according to the instructions of Human Plasminogen ELISA Kit (manufacturer: AssayMax, catalog number: EP1200-1). The concentration of each sample was calibrated by using human plasminogen working standard as the internal standard. […]

NSC34 cells [4] = test: Human plasminogen level in cytoplasm and nucleus of okadaic acid-treated NSC34 cells (ELISA); conditions: plasminogen 0.5 mg/mL 24 hours, vs vehicle group
Description: (§1) The cells were placed in a carbon dioxide incubator for culture at 37.0° C. and 5% CO2. […] After adding plasminogen for 24 hours, the cells were harvested. […] The supernatant is the extracted cytoplasmic protein, and the supernatant is immediately sucked up into a pre-cooled sample tube for later use. The precipitate is the cell nucleus, and the remaining supernatant was completely aspirated (to avoid contamination by cytoplasmic proteins), then adding 50-100 μL of nuclear protein extraction reagent. The precipitate is completely dispersed by pipette blow or high-speed vortex for 15 seconds (can be extended appropriately), then ice-bathing for 10 minutes, vortexing vigorously at maximum speed for 10 seconds and centrifuging at 12,000-16,000 g for 10 minutes at 4° C. The supernatant was immediately sucked up by pipette into a pre-cooled sample tube; this is the extracted nuclear protein.

NSC34 cells [5] = test: Plasmin activity in cytoplasm and nucleus of okadaic acid-treated NSC34 cells (enzyme substrate kinetic method, S-2251); assay type: cell-based; conditions: plasminogen 0.5 mg/mL 24 hours, vs vehicle group
Description: as §1

B1: plasminogen: human plasminogen purified from human donor plasma, in which human Lys-plasminogen and Glu-plasminogen are >98% (protein)
chain: KVYLSECKTGNGKNYRGTMSKTKNGITCQKWSSTSPHRPRFSPATHPSEGLEENYCRNPDNDPQGPWCYTTDPEKRYDYCDILECEEECMHCSGENYDGKISKTMSGLECQAWDSQSPHAHGYIPSKFPNKNLKKNYCRNPDRELRPWCFTTDPNKRWELCDIPRCTTPPPSSGPTYQCLKGTGENYRGNVAVTVSGHTCQHWSAQTPHTHNRTPENFPCKNLDENYCRNPDGKRAPWCHTTNSQVRWEYCKIPSCDSSPVSTEQLAPTAPPELTPVVQDCYHGDGQSYRGTSSTTTTGKKCQSWSSMTPHRHQKTPENYPNAGLTMNYCRNPDADKGPWCFTTDPSVRWEYCNLKKCSGTEASVVAPPPVVLLPDVETPSEEDCMFGNGKGYRGKRATTVTGTPCQDWAAQEPHRHSIFTPETNPRAGLEKNYCRNPDGDVGGPWCYTTNPRKLYDYCDVPQCAAPSFDCGKPQVEPKKCPGRVVGGCVAHPHSWPWQVSLRTRFGMHFCGGTLISPEWVLTAAHCLEKSPRPSSYKVILGAHQEVNLEPHVQEIEVSRLFLEPTRKDIALLKLSSPAVITDKVIPACLPSPNYVVADRTECFITGWGETQGTFGAGLLKEAQLPVIENKVCNRYEFLNGRVQSTELCAGHLAGGTDSCQGDSGGPLVCFEKDKYILQGVTSWGLGCARPNKPGVYVRVSRFVTWIEGVMRNN
- level of TDP-43 in the cytoplasm (TDP-43 [1]): significantly lower; also recorded: almost significantly or significantly lower
- level of TDP-43 in the nucleus (TDP-43 [1]): significantly lower; also recorded: almost significantly or significantly lower
- amount of TDP-43 monomer (TDP-43 [2]; WB optical density): significantly lower
- amount of high molecular weight TDP-43 protein (HMW) (TDP-43 [2]): significantly lower
- amount of low molecular weight TDP-43 fragment (LMW) (TDP-43 [2]): significantly lower
- time within which plasminogen is almost completely metabolized (blood) [3]: 12 to 24 h
- plasminogen level in the blood ([3]; vs vehicle group): significantly higher
- level of human plasminogen in the cytoplasm (NSC34 cells [4]): significantly higher
- level of human plasminogen in the nucleus (NSC34 cells [4]): significantly higher
- level of plasmin activity in the cytoplasm (NSC34 cells [5]): significantly higher
- level of plasmin activity in the nucleus (NSC34 cells [5]): significantly higher
